Laboratory results published in patent US10562947B2, “Compositions and methods for preventing or treating diseases, conditions or processes characterized by aberrant fibroblast proliferation and extracellular matrix deposition” (MOERAE MATRIX, INC., priority 2011, dated 2020).
Where a SMILES comes first, the peptide text is derived from it.

Tests used:
Assay in all cases: Kinase Profiling Assay
Format in all cases: biochemical
MAPKAP-K2(h) = MAPKAP-K2(h) (Homo sapiens, UniProt P49137); conditions: for MAPKAP-K2(h) % activity: 100 μM peptide
How it was run: (§1)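 All 266 human kinases of a profiling service were assayed in duplicate to establish whether MK2 inhibitory peptides act specifically.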

EGFR(T790M,L858R)(h) = EGFR(T790M,L858R)(h) (Homo sapiens, UniProt P00533, L858R/T790M); conditions: 100 μM peptide
How it was run: as §1

Fms(h) = Fms(h) (Homo sapiens, UniProt P07333); conditions: 100 μM peptide
How it was run: as §1

GRK7(h) = target: T1, GRK7(h) (Homo sapiens, UniProt Q8WTQ7); conditions: 100 μM peptide
T1 construct: purchased Millipore
T1 sequence (Q8WTQ7 1-553): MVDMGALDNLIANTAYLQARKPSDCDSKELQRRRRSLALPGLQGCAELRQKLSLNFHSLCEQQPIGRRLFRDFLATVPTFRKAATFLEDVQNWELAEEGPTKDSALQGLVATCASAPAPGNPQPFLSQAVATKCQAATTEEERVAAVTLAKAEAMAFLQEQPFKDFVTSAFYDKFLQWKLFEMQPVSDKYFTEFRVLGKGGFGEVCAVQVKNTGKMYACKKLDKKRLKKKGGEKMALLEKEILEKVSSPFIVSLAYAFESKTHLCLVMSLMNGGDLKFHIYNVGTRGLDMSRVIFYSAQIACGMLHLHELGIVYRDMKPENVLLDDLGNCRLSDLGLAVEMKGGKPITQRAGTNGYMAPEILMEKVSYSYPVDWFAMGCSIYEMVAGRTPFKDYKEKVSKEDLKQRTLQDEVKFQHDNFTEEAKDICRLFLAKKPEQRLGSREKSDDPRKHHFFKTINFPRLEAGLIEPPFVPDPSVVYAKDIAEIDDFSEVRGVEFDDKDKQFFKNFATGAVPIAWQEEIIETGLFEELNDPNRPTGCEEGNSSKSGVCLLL
How it was run: as §1

MST1(h) = target: T2, MST1(h) (Homo sapiens, UniProt Q13043); conditions: 100 μM peptide
T2 sequence (Q13043 1-487): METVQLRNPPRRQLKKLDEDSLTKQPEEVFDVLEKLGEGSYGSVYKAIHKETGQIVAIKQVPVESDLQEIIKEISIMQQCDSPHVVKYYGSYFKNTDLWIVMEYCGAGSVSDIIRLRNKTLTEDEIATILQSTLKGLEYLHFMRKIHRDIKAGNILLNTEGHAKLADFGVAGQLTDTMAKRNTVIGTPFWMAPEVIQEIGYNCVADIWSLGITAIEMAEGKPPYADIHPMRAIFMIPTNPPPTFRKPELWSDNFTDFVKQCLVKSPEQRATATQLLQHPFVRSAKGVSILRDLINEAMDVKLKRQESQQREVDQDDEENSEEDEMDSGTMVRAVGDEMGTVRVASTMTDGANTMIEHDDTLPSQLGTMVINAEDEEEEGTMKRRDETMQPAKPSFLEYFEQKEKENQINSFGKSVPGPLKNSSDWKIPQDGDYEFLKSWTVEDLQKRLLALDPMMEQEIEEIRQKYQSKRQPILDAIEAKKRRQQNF
How it was run: as §1

NLK(h) = target: T3, NLK(h) (Homo sapiens, UniProt Q9UBE8); conditions: 100 μM peptide
T3 sequence (Q9UBE8 1-527): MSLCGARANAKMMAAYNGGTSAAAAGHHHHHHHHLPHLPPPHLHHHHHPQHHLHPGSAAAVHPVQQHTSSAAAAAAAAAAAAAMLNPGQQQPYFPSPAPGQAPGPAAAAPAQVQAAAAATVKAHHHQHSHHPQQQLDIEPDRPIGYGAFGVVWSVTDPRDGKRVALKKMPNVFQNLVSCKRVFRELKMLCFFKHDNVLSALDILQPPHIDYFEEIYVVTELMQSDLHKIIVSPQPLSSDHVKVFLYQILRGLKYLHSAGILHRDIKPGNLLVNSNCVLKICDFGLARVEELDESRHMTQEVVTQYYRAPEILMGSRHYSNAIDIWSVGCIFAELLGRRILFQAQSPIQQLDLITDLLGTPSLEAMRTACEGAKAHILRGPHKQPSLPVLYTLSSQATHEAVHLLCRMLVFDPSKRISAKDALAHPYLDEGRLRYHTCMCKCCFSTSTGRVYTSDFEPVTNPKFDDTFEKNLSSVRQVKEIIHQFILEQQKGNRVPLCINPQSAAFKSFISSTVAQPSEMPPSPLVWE
How it was run: as §1

PKCα(h) = PKCα(h) (Homo sapiens, UniProt P17252); conditions: 100 μM peptide
How it was run: as §1

Ret(V804L)(h) = target: T4, Ret(V804L)(h) (Homo sapiens, UniProt P07949, V804L); conditions: 100 μM peptide
T4 construct: purchased Millipore (IC50 Profiler Express service)
How it was run: as §1

Ros(h) = target: T5, Ros(h) (Homo sapiens, UniProt P08922); conditions: 100 μM peptide
T5 construct: purchased Millipore (IC50 Profiler Express service)
How it was run: as §1

Rsk1(h) = target: T6, Rsk1(h) (Homo sapiens, UniProt Q15418); conditions: 100 μM peptide
T6 construct: purchased Millipore (IC50 Profiler Express service)
How it was run: as §1

TrkA(h) = TrkA(h) (Homo sapiens, UniProt P04629); conditions: 100 μM peptide
How it was run: as §1

ULK3(h) = target: T7, ULK3(h) (Homo sapiens, UniProt Q6PHR2); conditions: 100 μM peptide
T7 sequence (Q6PHR2 1-472): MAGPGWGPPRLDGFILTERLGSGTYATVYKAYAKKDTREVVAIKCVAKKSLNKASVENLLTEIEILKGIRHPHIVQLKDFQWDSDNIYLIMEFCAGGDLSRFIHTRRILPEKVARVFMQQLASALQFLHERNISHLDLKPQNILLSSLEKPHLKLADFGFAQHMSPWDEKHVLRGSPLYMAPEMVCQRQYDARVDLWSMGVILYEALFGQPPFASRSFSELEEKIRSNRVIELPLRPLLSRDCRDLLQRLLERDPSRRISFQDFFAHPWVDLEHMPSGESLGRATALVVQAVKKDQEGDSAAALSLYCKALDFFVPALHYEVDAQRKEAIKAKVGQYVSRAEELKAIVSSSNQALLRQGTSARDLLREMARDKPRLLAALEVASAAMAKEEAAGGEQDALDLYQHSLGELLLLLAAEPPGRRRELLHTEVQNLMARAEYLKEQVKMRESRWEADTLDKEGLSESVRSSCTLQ
How it was run: as §1

cKit(D816H)(h) = cKit(D816H)(h) (Homo sapiens, UniProt P10721, D816H); conditions: 100 μM peptide
How it was run: as §1

FAK(h) = FAK(h) (Homo sapiens, UniProt Q05397); conditions: 100 μM peptide
How it was run: as §1

Chain of FAK(h) (Q05397 whole entry): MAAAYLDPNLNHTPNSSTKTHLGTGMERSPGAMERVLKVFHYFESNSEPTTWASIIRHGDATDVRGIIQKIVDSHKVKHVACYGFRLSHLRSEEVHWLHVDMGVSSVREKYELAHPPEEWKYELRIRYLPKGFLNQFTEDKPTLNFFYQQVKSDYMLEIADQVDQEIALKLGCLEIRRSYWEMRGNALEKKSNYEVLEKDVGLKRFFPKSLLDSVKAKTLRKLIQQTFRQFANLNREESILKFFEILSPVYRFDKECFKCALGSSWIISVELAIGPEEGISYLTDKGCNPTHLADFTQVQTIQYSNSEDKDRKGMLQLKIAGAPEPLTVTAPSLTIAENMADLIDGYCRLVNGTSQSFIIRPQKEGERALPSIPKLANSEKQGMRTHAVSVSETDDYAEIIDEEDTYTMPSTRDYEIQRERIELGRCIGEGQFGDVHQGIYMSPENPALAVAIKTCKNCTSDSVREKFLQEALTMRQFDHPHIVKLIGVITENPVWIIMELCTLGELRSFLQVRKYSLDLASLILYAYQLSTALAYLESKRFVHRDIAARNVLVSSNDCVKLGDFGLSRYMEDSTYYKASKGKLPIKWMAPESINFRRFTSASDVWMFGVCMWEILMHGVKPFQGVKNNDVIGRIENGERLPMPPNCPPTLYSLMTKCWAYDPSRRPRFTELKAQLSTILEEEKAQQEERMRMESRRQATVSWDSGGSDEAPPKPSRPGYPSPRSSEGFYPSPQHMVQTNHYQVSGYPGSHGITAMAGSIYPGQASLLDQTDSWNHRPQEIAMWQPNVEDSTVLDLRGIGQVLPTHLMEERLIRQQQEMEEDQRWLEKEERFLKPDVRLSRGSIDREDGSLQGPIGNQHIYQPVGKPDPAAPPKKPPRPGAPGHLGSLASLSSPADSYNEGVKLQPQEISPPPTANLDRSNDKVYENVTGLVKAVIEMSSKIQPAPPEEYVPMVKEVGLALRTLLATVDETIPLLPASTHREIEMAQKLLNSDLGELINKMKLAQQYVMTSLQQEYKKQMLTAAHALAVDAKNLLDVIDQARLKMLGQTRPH
Chain of MAPKAP-K2(h) (P49137 whole entry): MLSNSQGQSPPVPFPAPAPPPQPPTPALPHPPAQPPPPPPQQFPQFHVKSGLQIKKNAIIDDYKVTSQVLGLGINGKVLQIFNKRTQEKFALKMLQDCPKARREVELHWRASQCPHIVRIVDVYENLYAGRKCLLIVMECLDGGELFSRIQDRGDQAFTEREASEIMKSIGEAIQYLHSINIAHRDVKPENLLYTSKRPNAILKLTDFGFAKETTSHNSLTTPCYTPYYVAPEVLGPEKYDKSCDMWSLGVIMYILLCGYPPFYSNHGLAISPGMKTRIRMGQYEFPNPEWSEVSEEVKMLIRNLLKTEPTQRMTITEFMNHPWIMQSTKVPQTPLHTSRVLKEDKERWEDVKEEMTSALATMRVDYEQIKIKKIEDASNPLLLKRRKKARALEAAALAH
T6 sequence (Q15418 whole entry): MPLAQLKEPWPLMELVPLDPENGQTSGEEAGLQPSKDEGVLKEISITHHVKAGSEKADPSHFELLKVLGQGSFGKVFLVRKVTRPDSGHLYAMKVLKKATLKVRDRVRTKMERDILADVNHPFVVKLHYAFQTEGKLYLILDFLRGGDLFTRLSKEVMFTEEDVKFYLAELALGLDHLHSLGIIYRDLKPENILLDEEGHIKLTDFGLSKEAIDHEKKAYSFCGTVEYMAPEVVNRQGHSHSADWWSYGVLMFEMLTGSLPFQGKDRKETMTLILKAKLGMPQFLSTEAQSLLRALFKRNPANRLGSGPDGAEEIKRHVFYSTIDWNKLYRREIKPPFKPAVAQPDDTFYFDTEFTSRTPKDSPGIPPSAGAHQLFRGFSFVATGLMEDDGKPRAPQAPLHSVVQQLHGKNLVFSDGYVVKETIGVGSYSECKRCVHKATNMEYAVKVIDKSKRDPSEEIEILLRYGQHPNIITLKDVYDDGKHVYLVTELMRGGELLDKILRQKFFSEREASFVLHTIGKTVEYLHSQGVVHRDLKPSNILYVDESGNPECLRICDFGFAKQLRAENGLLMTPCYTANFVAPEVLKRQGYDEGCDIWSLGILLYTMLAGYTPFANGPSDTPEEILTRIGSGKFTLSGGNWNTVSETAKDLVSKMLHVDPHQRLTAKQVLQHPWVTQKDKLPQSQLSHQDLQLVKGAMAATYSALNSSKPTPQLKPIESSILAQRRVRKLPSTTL
Chain of TrkA(h) (P04629 33-796): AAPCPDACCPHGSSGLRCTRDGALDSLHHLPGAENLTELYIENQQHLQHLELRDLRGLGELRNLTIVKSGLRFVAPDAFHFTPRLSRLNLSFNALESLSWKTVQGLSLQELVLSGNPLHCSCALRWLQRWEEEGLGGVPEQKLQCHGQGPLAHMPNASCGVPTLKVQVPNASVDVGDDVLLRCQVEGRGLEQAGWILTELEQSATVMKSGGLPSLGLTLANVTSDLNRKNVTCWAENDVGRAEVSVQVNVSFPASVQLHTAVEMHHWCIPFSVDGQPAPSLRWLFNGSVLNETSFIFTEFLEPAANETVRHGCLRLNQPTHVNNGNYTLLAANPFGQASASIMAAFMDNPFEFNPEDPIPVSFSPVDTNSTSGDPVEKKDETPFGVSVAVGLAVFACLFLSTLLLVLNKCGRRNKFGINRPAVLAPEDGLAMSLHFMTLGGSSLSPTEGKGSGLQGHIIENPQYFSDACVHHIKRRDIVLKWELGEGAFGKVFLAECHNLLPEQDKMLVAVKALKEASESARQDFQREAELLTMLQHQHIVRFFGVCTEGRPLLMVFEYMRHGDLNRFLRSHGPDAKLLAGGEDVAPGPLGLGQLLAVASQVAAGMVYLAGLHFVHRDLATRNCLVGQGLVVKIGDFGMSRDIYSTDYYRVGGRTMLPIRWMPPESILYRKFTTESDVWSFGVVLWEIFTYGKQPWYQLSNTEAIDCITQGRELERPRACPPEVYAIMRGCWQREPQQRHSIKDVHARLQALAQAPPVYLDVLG

Row | Compound | inhibition at 100 µM (MAPKAP-K2(h); read-out: inhibition of kinase activity of MK2) | EGFR(T790M,L858R)(h) % activity (EGFR(T790M,L858R)(h)) | Fms(h) % activity (Fms(h)) | GRK7(h) % activity (GRK7(h)) | MAPKAP-K2(h) % activity (MAPKAP-K2(h)) | MST1(h) % activity (MST1(h)) | NLK(h) % activity (NLK(h)) | PKCα(h) % activity (PKCα(h)) | Ret(V804L)(h) % activity (Ret(V804L)(h)) | Ros(h) % activity (Ros(h)) | Rsk1(h) % activity (Rsk1(h)) | TrkA(h) % activity (TrkA(h)) | ULK3(h) % activity (ULK3(h)) | cKit(D816H)(h) % activity (cKit(D816H)(h)) | FAK(h) % activity (FAK(h))
1 | CC(C)C[C@H](NC(=O)[C@H](C)NC(=O)[C@H](CCCCN)NC(=O)[C@H](C)NC(=O)[C@H](CCCNC(=N)N)NC(=O)[C@H](C)NC(=O)[C@H](CCC(N)=O)NC(=O)[C@H](CCCNC(=N)N)NC(=O)[C@H](C)NC(=O)[C@H](C)NC(=O)[C@H](C)NC(=O)[C@H](CCCNC(=N)N)NC(=O)[C@H](C)NC(=O)[C@@H](N)Cc1ccc(O)cc1)C(=O)N[C@@H](C)C(=O)N[C@@H](CCCNC(=N)N)C(=O)N[C@@H](CCC(N)=O)C(=O)N[C@@H](CC(C)C)C(=O)NCC(=O)N[C@H](C(=O)N[C@@H](C)C(=O)N[C@@H](C)C(=O)O)C(C)C [MMI-0100] (H-YARAAARQARAKALARQLGVAA-OH; N-terminus and C-terminus assumed) | > 65% |  |  |  |  |  |  |  |  |  |  |  |  |  | 
2 | FAKLAARLYRKALARQLGVAA [MMI-0300] |  | 85% | 45% | 122% | 5% | 14% | 87% | 89% | 79% | 95% | 46% | 25% | 167% | 126% | 
3 | HRRIKAWLKKIKALARQLGVAA (Mammalian) [MMI-0500] |  | 53% | 14% | 93% | 9% | 3% | 19% | 3% | 20% | 150% | 34% | 24% | 177% | 194% | 94%
4 | KAFAKLAARLYRKALARQLGVAA [MMI-0400] |  | 78% | 37% | 100% | 5% | 6% | 90% | 86% | 73% | 99% | 54% | 17% | 147% | 143% | 96%
5 | YARAAARQARAKALNRQLGVA (Mammalian) [MMI-0200] |  | 108% | 92% | 124% | 35% | 72% |  | 100% | 100% | 86% |  |  | 164% |  | 110%
